Laboratory results from the DeepSol protein solubility set.

Assay: soluble on expression in E. coli; label from the status in PepcDB or PDB records

MQNNSYGYAVSVRVGGKEHRHWERYDIDSDFLIPADSFDFVIGRLGPEAAIPDLSGESCEVVIDGQIVMTGIIGSQRHGKSKGSRELSLSGRDLAGFLVDCSAPQLNVKGMTVLDAAKKLAAPWPQIKAVVLKAENNPALGKIDIEPGETVWQALTHIANSVGLHPWLEPDGTLVVGGADYSSPPVATLCWSRTDSRCNIERMDIEWDTDNRFSEVTFLAQSHGRSGDSAKHDLKWVYKDPTMTLHRPKTVVVSDADNLAALQKQAKKQLADWRLEGFTLTITVGGHKTRDGVLWQPGLRVHVIDDEHGIDAVFFLMGRRFMLSRMDGTQTELRLKEDGIWTPDAYPKKAEAARKRKGKRKGVSHKGKKGGKKQAETAVFE
soluble on expression in E. coli: soluble

MGSDKIHHHHHHMNEKELAGWFPQAKLSQEADAQSLALGDGRYLNLADADLTERERYLLSLLSHPQEQKPSSPWQSYLHGQSSLPQAVEAIQFIHVHLWSQKDAQLDAWQTMMTDLLPSQLAQVQLSSQDYLFIIEQSRWTDYQTILADTLSALEFDFGLRLTFLVGQVWSRQLADRWSQLYQAEAALFAHWRAHYHQSTVLSFSQLFLWGQGRAGLEFGMIKASMLQLIDQQDMQDIILALWTEGAVVTKTAQILYIHRNTLQYRLDKWQDLTGLQLKDLTDLSFCYQVLLDRLF
soluble on expression in E. coli: not soluble

MYHNSSQKRHWTFSSEEQLARLRADANRKFRCKAVANGKVLPNDPVFLEPHEEMTLCKYYEKRLLEFCSVFKPAMPRSVVGTACMYFKRFYLNNSVMEYHPRIIMLTCAFLACKVDEFNVSSPQFVGNLRESPLGQEKALEQILEYELLLIQQLNFHLIVHNPYRPFEGFLIDLKTRYPILENPEILRKTADDFLNRIALTDAYLLYTPSQIALTAILSSASRAGITMESYLSESLMLKENRTCLSQLLDIMKSMRNLVKKYEPPRSEEVAVLKQKLDRCHSAELALNVITKKRKGYEDDDYVSKKSKHEEEEWTDDDLVESL
soluble on expression in E. coli: soluble

MALNFLSYDDDFCGYCGAILELPAQAPATVSCKVCSTRWAVKERVDQVVSRVEKIYERTVADTDGIENDESADAVVDHICTKCGHSKASYSTMQTRSADEGQTVFYTCLKCKKKDIEYS
soluble on expression in E. coli: not soluble

MQYKLILNGKTLKGETTTEAVDAATAEKVFKQYANDNGVDGEWTYDDATKTFTVTEGSMAGGAWGRLACYLEFLKKEELKEFQLLLANKAHSRSSSGETPAQPEKTSGMEVASYLVAQYGEQRAWDLALHTWEQMGLRSLCAQAQEGAGHSLEHHHHHH
soluble on expression in E. coli: soluble

MTARAIIIGAPRSGSGKTSVTIGLLRAFARRGVKVRGIKTGPDYIDPGFHAFATGTPGLNLDSWAMQPDLLRHLFSQQTEDAELILIESAMGLFDGIPVAENRTGSAADLARLFRIPVLLVLDVSGQSQTAATIAHGFAHYDPDVTMGAVVLNRAGSERHRTLCTEAIEKIGLPVVGCVLRDPSLILPERHLGLVQASEHPEIDPHIDRLADAMEKSIDLDTLFSLAAPVDMPCGSVAAAIAPPGQRIALAEDAAFTFLYPHLRRHWRAAGAEIVPFSPLADEAPDESCDICWLPGGYPELFAGKLADAVGFKAGITRFAETKPVHGECGGYMVLGERLEDAEGVIHAMTGLLSHATSFATRKMNLGYRQATIAADSPLGMAGDVLRGHEFHYARVIDPGRDQPFAHMADGQGRPLGPSGGRRGFVSGTFFHAIAKGGLEHHHHHH
soluble on expression in E. coli: not soluble

MTWNESHGERIIRRFERDIFPWIGSKPISEIAAPELLATVRRIESRGAVETAHRALGNCGQVFRYAIATARATRDISADLRGALPPVKGEHLEHHHHHH
soluble on expression in E. coli: not soluble

TEDSLMPEEEFLRRNKGPVSIKVQVPNMQDKTEWKLNGQGLVFTLPLTDQVSVIKVKIHEATGMPAGKQKLQYEGIFIKDSNSLAYYNMASGAVIHLALKER
soluble on expression in E. coli: soluble

MYSVLIPVDRDEARASNQASYVSQLPDATDTVEATVLYVVPPDEFADAAEVAFDDIDAAVQAANQLEAAGVSVTRMVDDGGVAQQIVRTATELDSDEIVVGGRKRSGVSKVLLGSTAQDVLLSAERPVTITGESVVL
soluble on expression in E. coli: not soluble

MGSDKIHHHHHHMGHKVTGSDANVYPPMSTQLEQQGIELIQGFDPAQLGKEGDNQPDLVVIGNAMSRGNPCVEAVLNRGIKYTSGPQFLSEHILQDRWVLAVAGTHGKTSTSSMLAWVLEYCGYEPGFLIGGVPQNFGVSARLGNSVFFVVEADEYDSAFFDKRSKFVHYHPRTLVINNLEFDHADIFADLAAIQRQFNHVIRTVPGEGKVIWPSDVEAVQQVIDMGCWSEQEIYSKATSLTTGLAEHSVNVSANQGEPNAWQPRTIADDGHEFEVLFKGESQGIVNWSLIGQHNIENAIMAIAAARHVGVAPSHAIEALAQFSPPKRRLELLATVNGVSVYDDFAHHPTAIATTLQGLRAKVASSDNANGNIIVVLEPRSNTMKSGVHKDTLANSMVLADVGYLYQADNIDWDIKASMANAPIPVTVFNNIEDIINAVAATANQGDTVVIMSNGGFNGIHQKMIKALA
soluble on expression in E. coli: not soluble

MKSVVLGILSSISDEVNLEMIKKYDVKLARRISGGGSVFHDMGNINYTFITSGQGGIDYLYGYLLRGTISAIENLVNDRVEVYNETDIAFKGYKISGNAGYINEDKYLLHGTLLVSSNLDI
soluble on expression in E. coli: soluble

MKFPGKRKSKHYFPVNARDPLLQQIQPENESSVSWVVGIDQTLVDIEAKVDEAFIVRYGLSAGHSLVIEDDVAEALYQELVRNNLITHQFAGGTIGNTMHNYSVLADDRSVLLGVMCSNIEIGGYAYRYLCNTSSRTDLNYLQGVDGAIGRCFTLIGDSGERTFAISPGHMNKLRPESIPEAVIAGASALVLTSYLVRCKPGEPMPDATMKAIEYAKKHDVPVVLTLGTKYVIADNPAWWQEFLQEHVSILAMNEEEGEALTGFADPLSAANKALDWVDLVLCTAGPAGLYMAGFTEEEAKRKTQHPLLPGAIPEFNQFEFSRAMRHQDCVNPLRIYSHIAPYMGGPEKIMNTNGAGDGALAALLHDITANNYHRNNVPNSSKHKCKWLTYSSLAQVCKYANRVSYQVLNQHSPRLTRGLPEREDSLEEAYWDR
soluble on expression in E. coli: not soluble

MSTYEGRWKTVKVEIEDGIAFVILNRPERRNAMSPTLNREMIDVLETLEQDPAAGVLVLTGAGEAWTAGMDLKEYFREVDAGPEILQEKIRREASQWQWKLLRMYAKPTIAMVNGWCFGGGFAPLVACDLAICADEATFGLSEINWGIPPGNLVSKAMADTVGHRQSLYYIMTGKTFGGQKAAEMGLVNESVPLAQLREVTIELARNLLEKNPVVLRAAKHGFKRCRELTWEQNEDYLYAKLDQSRLLDTEGGREQGMKQFLDDKSIKPGLQAYKR
soluble on expression in E. coli: soluble

MKFYEEKIDSKRVFEGKMISVRVDRVRLPDGRESTREVVDHPGAVVIVPVLGGKILFVEQYRYPIEQVLLELPAGKLDPGESPEECAKRELEEETGYRAKKLSYLGKIFTTPGFTTEVIHIFAAEDLEKTSQNTDPDEFIEVKEVPIEEALSLLKNAEIEDSKTICALTRFFFAKGVIR
soluble on expression in E. coli: soluble

MSLHGRLRDILRLLMAAEAPVTSSFFAAQLNVTTRTVRNDIKELQGVLSGHGAFVQSVRGSGYKLRIDDEQVFRTLLQDEFQQKKGLPVLPEERMAYLMKRLLLADHYLKLDELAEELFISKSTLQTDLKEVKKRLLPYRIVMETRPNYGFKLRGDEVQMRYCMAEYIVDERETEIDVLNEKADILPKEEIEIIRSAILKKMKNDRIPLSNMGLNNLIIHIAIACKRIRTENYVSLFPKDMDHILHQKEYQAAEAIVKELESKLSVTFPKDETAYITMHLLGTKRMTQSQCGEDTFSIEEETDQLTLAMIKAVDRELKLGILHDKELKIGLALHMKPAISRNRYGMNLRNPMLAAIKEHYPLAFEAGIIAGIVIKEQTGIEIHENEIGYLALHFGAAIERKKTESPPKRCIIVCASGAGSAQLLREKLRSHFGKRLDILGTAEYYSLDQMSYESIDFVISTIPIKKELPVPVLKVNTILGGTDFTKIESILSDEKEKANRYLKKELVFFQEDLRSKEEVIQFLGQKVVECGFADEEIIDSIFEREDMSPTCFGNLVAIPHPLVPQTKTTFWAVCTLKKPIDWESQRVQFVCLLCVEKENKADLQSMYKLLGSILDDPAAMNQLIKCRSYQELSDVFDQKMLSEGHHHHHH
soluble on expression in E. coli: soluble

MGSDKIHHHHHHMKTCWQILEIESTTQIDIIRQAYLARLPLCHPETDPQGFKALRQAYEEALRLAVNPVEEADDEEKDATAEHEILRAFRTLLDSESDRFQPSAWQKFIQQLNTWNMEDVDQLRWPLCAIAIEARYLSLNCASLLAERLNWHSFNDSEGMDEEEREAFLEAIQAGDCFDFLSLLEYPVALQNQTVEYYFALERCCRYHPDYVTAFLAMEGPWFIPDDAKLHRKLLRWYSSVQTGMVELIPVAKQWQAEEPESEDARYYQCAQRLYCGEGESLLADLGAYWESYPSTQADNLLLQWSKRHCPDYFALLVMVIEARSMVDAQGQPLKYVPGESARTRLLWAEILHSGKLSPLGQSFIESLFFKRKAWAWWKSRVGSETEEDSPLLDLYRVAEQVVLEAFPKQEMLARLNTRLEGGDAHPLEAIITRMLLTKVKLEPEDEDVDEPTPENHEEKNDEGEKPQSITSIIKISLTVLVIGYALGKIAMLFS
soluble on expression in E. coli: not soluble

MGSDKIHHHHHHENLYFQGMFRPQDDFTYLMPVHFGGGKFDPETLVTQKATALSLSFETERDLLENYIPEGFELLAPEVQVAFNKFTEINWLHGGQYNLINVAAPVRFHGKKDELDGAYTLVVWENKTAPILGGREQTGIPKIYADIEDLHIVRPHFATTVSYEGNTFLNMDFEATGSITGRDLDALKSQFLTMNTLGWRYIPKVGAPGAELSQFVLYPQGMEVETAEVGKGSLKWTELTPMQSPAQYYIVNSLASLPIKRVTQAVLVEGRAILRAMGARVIE
soluble on expression in E. coli: soluble

MGNTAMWMSCNPTIPILFGIQVKIFPLNQIFNHIHPARYAVTFENNVDSKLRRHWVAGATIRIIDRQTDEVIAKKTIYVFEKGLDGTGGARMPWKFAILCNKERLTSSEPLSDFVLSVLKPYILRPLYIASLRRDD
soluble on expression in E. coli: not soluble

MSKFWSPFVKDLVPYVPGEQPKLSRLVKLNTNENPYGPSPQALAAMQAELNDDLRLYPDPNGERLKQAVAAHYGVQANQVFVGNGSDEVLAHIFHGLFQHDLPLLFPDVTYSFYPVYCGLYGIAHEKIALDERFRIRVEDYARPNGGIIFPNPNAPTGCLLPLDAIEAMLKASPDSVVVVDEAYVDFGGESAIALVDRYPNLLVTQTLSKSRSLAGLRVGLAVGHADLVEALERIKNSFNSYPLDRLAIAGAAAAFEDDAYFRRTCQAVIDSREALSASLQALGFEVLPSAANFVFARHPRHDAGQIASTLREQGVIVRHFKQARIDQFLRITIGSPEQNQALLDALHFLK
soluble on expression in E. coli: not soluble

SNAMKKGTVLNSEISSVISRLGHTDTLVVCDAGLPIPNSTARIDMALTQGVPSFMQVVDVVTREMQVEAAILATEIKQQNPQLHETLLTHLEQLQQHQGNTIKISYTTHEQFKKLTADSQAVIRSGECSPYANVILCAGVTF
soluble on expression in E. coli: soluble

MAQAFVDATWPQAAKAAQSLGVPAHFLVAQAALETGWGKSQIRNKDGTPSYNLFNIKAGSNWTGKVVEARTVEYENGQRKVRVERFRAYDSYEQAFQDYADLVGNSPRYAKVAGKTDGHAFARALQEGGYATDPSYADKLARVINGNALRQRLMASAASARGLEHHHHHH
soluble on expression in E. coli: soluble
